Here are results for one substance from paper PMC2279226.

Test [1] addresses H3 (K9, 14, 18, 23) tetra-acetylated nucleosome (Xenopus laevis).
For test [2] the target is unchanged. This is another data set of the same source.

Substance RSC complex (from UniProt Q02206 1-625) showed an initial rate of nucleosome repositioning by RSC relative to the unmodified S28C control (competitive sliding assay, 54A18 DNA, 30 °C, 1 mM ATP) in test [1] of 16 fold. The Km for nucleosomes of ATP hydrolysis by RSC (real-time MDCC-PBP ATPase assay, 0.3 nM RSC, 36W36 nucleosomes), against the unmodified control in test [2] came to 3 fold lower.
